The target of the assay is FITC-labeled McrA peptide (GG-…) (Methanothermobacter sp. CaT2). Kind of assay: fluorescence polarisation.

Broadly, the Kd is the equilibrium constant for the complex coming apart. Low values mean tighter binding, high ones weaker binding. Consider “MtYcaO (YcaO from Methanothermobacter sp. CaT2), MBP-His tag cut in the assay mixture (enzyme)”, for which the Kd is 7 µM.

These data come from article PMC8084935.
